From paper PMC10425327

Target: T1, complement C5a receptor (mouse (endogenous in Peyer's patch LysoDCs)) (UniProt P30993)
T1 sequence: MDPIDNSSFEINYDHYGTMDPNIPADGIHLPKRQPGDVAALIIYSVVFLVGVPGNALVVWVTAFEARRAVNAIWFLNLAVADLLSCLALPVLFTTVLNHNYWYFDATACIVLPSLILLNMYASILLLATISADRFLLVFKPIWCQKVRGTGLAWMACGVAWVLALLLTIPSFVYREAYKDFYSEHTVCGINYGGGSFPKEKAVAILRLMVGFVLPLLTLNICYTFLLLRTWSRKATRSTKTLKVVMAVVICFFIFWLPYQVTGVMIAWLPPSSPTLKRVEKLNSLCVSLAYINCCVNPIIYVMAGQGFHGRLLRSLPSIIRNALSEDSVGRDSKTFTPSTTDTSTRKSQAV

- CCL2 (MCP-1) in the culture supernatant of C5aR+ LysoDCs treated with Co1 peptide (10 uM, 24 h), against untreated C5aR+ LysoDCs and Co1-treated C5aR- LysoDCs: > 2 fold
- CCL3 (MIP-1alpha) in the culture supernatant of C5aR+ LysoDCs treated with Co1 peptide (10 uM, 24 h), against untreated C5aR+ LysoDCs and Co1-treated C5aR- LysoDCs: > 2 fold
Binder: SFHQLPARSPLP [Co1 peptide]
